The DeepSol protein solubility set

test: soluble on expression in E. coli; label from the status in PepcDB or PDB records

Row | Sequence | soluble on expression in E. coli
1 | MSLSNAVAQDLMTIADIVEATTTAPIPFHITAFDGSFTGPEDAPYQLFVANTDAVSYIATAPGDLGLARAYLMGDLIVEGEHPGHPYGIFDALKEFYRCFKRPDASTTLQIMWTLRKMNALKFQEIPPMEQAPAWRKALINGLASRHSKSRDKKAISYHYDVGNEFYSLFLDDSMTYTCAYYPTPESSLEEAQENKYRLIFEKLRLKEGDRLLDVGCGWGGMVRYAAKHGVKAIGVTLSEQQYEWGQAEIKRQGLEDLAEIRFMDYRDVPETGFDAISAIGIIEHIGVNNYPDYFELLSSKLKTGGLMLNHSITYPDNRPRHAGAFIDRYIFPDGELTGSGTLIKHMQDNGFEVLHEENLRFDYQRTLHAWCENLKENWEEAVELAGEPTARLFGLYMAGSEWGFAHNIVQLHQVLGVKLDEQGSRGEVPERMWWTEGHHHHHH | soluble
2 | MAPTNLTKKPSQYKQSSRKGKKAWRKNIDLSDVEQYMEKKIDHEITHGTSDITSLQNDALFHVDVEGDEILKNKLIKRKQIKKVLKSKEILDAVKTNSKIAALNHHKNSSGNPNKIQGVSKHELKKLMALAGRVHGESKIKNRVAKDGLVKTTAGDLWGEESNSKKQKVKLPSGIKLDVEKKDQIPEELLKKSTTSWSTASVRPSTLDIEPIAVKEFTEIPHAGKSYNPNNKAWSELINKEYKEEKAREDERIALEKYKERIRHLMETLDDNEEEESSSNEEEEEEEEENENENESTQCSGSDKEIKLSINKPVKNKKKTKYQRNKAKRHEEKVKLQQELKELRQRVKDLEEVINSEETEILSAIESDSNKVKKSKKNKKHKLGTKYSVIDERLEIKFSDELSDSLRKLKPEGNLLYDTVRKLQSSGKVETRVPVRKGRKYKQKITEKWTHKDFK | not soluble
3 | MTTVQTSVYEPLTEPKAVSLAVRLGLFRDGAPLACREIGDGNLNLVFHIVDQETKQGVIIKQALPYAKVVGESWPLTLKRAVIESNALRTFASYVPQYVPKVYYSDESLAITVMEDLSRLQIARKGLIEGKTYPLLSQHIGEFVAKTAFYTSDFGMNQQEKKKLAQSFVNPELCKITEDLVFTDPFFDHETNNFEDELRPDVEALWRDDRLHLEAAKLKRKFLTEADVLLHGDLHTGSIFVSADETKVIDPEFAFYGPIGFDLGQFFANLLLNALSRSELERQPLFDHIDRTWDVFASVFSNLWCTESVETYAATPGLLEDVLRHAFIDAVGFAGCEVIRRTIGLAHVADLDGIEHKDERLVAKRHALRLGRRLIIERRVFTGTEDFRRLFAETEQ | not soluble
4 | MTKSLFRQSFLFDSLDLDHPMVAQTVRTEQGVTLKLHQRGVLEVIPAQTDAATKNMVISCGIHGDETAPMELLDKWIDDIVSGFQPVAERCLFIMAHPQATVRHVRFIEQNLNRLFDDKPHTPSTELAIADNLKVLLRQFFANTDEHSRWHLDLHCAIRGSKHYSFAVSPKARHPVRSRSLMQFIEQAHIEAVMLSNAPSSTFSWYSAEHYAAQALTLELGQVARLGENLLDRLLAFDLAMRDLISRHKPEHLPRKSVMYRVSRTIVRLHDDFDFRFSDDVENFTAFMHGEVFGHDGDKPLMAKNEGEAIVFPNRKVAIGQRAALMVCKVNTRYEDDQLVYDLEHHHHHH | soluble
5 | MTTKRIDRDLPSSDDPSSAKRRIEFPEETLENDGAAAIKLLSLLLQCAEYVATDHLREASTLLSEISEICSPFGSSPERVVAYFAQALQTRVISSYLSGACSPLSEKPLTVVQSQKIFSALQTYNSVSPLIKFSHFTANQAIFQALDGEDSVHIIDLDVMQGLQWPALFHILASRPRKLRSIRITGFGSSSDLLASTGRRLADFASSLNLPFEFHPIEGIIGNLIDPSQLATRQGEAVVVHWMQHRLYDVTGNNLETLEILRRLKPNLITVVEQELSYDDGGSFLGRFVEALHYYSALFDALGDGLGEESGERFTVEQIVLGTEIRNIVAHGGGRRKRMKWKEELSRVGFRPVSLRGNPATQAGLLLGMLPWNGYTLVEENGTLRLGWKDLSLLTASAWKSQPFD | soluble
6 | MGSDKIHHHHHHMTRTSPTHAKLAQPIVHAPGLFHSLAPGERKRDKLDVTHVAGDTTVRFVGFEPLDSTDLRVLQGLIALATAGLRNIRRLLRDGQSLRTSLDLKGDAQDERTVAARFTLASLADMAGFDRGGFGCRQMRASLQRLSNVTVLVDRPEFEGAFRLVSGYRLDKHTGELVVSISPLGTTAILGRQGYLRLNMDEVRRIHGEVAHLIHSRLHWVNQGDRRPVNMDTLCSYAYVGVRTGSALRKRRMAVRQALKELMDVGWTVTEKYPGTYLIGRPRRASDQGELVTRAGVNW | not soluble
7 | MGSDKIHHHHHHMRAFEKIPAFQQWQKVEAIHRGWSTDLKFKVTKNQETFLLRIFQQEELLAKQQEYQFIKKVAALGFPSSKPFLCAPIPESEQGYMLLTYLEGEDLSDVLPALSPKRQLNLGVEAGRYLNKIHKLLLPERISQREIAQNLYEKKQSQLNKYKESQFCMPYQQPIISYLEKQLPLLQQRPVVYQHGDFHVGNFIYLPTRQVGVIDFNRWDFGDPYEEFYKLQFFSRNVSPLFAYGQLQGYFAGKVPTLFWQFQKLYTFHAGLYSLVWALSFGEKEIRTMEQQYQQLLEDYNCGELLVPKWFSTIQRKGLRF | not soluble
8 | MMEVLTGPERRRRWSVEEKLALVRESFEPGKTVSMVARQHGVNPNQVFHWRKLYQDGSLSAVSAGEEVVPASELAEALKLVRVLQRMLGKKTMENEILREAVEYGRAKKWIARSPSLPGDDQLEHHHHHH | not soluble
9 | MGHHHHHHSHMTAYSVGMGAEIQLCSHPIGLSKNQSRNPTKTLDSAKILACSLAQSKQPIRWEADPYNNIVYSIYYMELTLPTTPCRMLPQYQEKYGAVGRGTPYWIYYRKTLYLEIPLSERVGLKGGDTKMGIQDGTHQRDPPFYKPTPPPHIPPVLEKHTGWSYLCGYTWWTP | not soluble
10 | MGSDKIHHHHHHMSKAYSSNLTQDQWELLEPLIPVGKTGGRPRVVEMWQVINAIFYVLTQGCTWRNLPGDLPNWQTVYTYFRNWRKDGTWVSIHDQLRDWERVNNERAVSPTEAIIDSQSVKTAAMVTQQVGYDAGKKVKGRKRFLTVDTLGLVLPVLVSAASVDERSGGKLLLQKVKQMGDKVSRLNLIWVDGGYDGNPFMQWVMDFYRWVVQVVLRPRERKGFVLLPKRWVVERTFGWLTGCRRLNKDYELLPETAENFIYLAMIRIMVRRLA | not soluble
11 | MIGVASSAVFDLLASDAVFQSQGEEEYRKFQQKNLHVPLPKGIAFPFIKRLLSVNDLSVDPTDPLVEVILLPRNDPDTGLRVLKTIEHYELGMTRAIFMQGKSPYEYIPALNIALFLSGDKKDVEAAIRAGYPAGQVLDSKFEDDETDKTLRIAFDFDGVLAGDESETIMQASGLSEFHSHEVKNVMQPHNPGPLKEFMVRISKIQSVEEKHKKLNPKYENRIRVSIVTARNAPSHERAMNTLKSWGVMANDAFFLGGIEKGKILSVLKPHIFFDDQSGHLKSTSAVAPSVHIPFGITNHVSTVDAIEPEADQVQQVV | not soluble
12 | GWNECNDKLRDISRSFWRGDQGYLKEFATRLMGSRDIYSAANWPYKLTVNYITYHDGFTLQDLVSYKHKHNEANGEENRDGHGDNRSENYGVEGETENIMIIATREKQKRNLIASLLFAFGIPHILTADVLSHSQDGNNNAYCQDNKTSWINWSETERKAHFKTWMAQMVANRHQYMVPFIRAFSGENRNNNRIFWRRTDGRLMEHDDWNRLSSVALHLGIGKDGQELVYLINQTNATARFKLPNERNQEWVTICDTNVRNLNPGHAEGEVLLSPTSMVILHYQPKPNSPQGEQLQS | not soluble
13 | MAHHHHHHMKWSAVCLLKRDFDAWAYSINWPQRKSHLPLLGSVSLTVEDIKFAYNAWCLLRLAMFFGTGHPKILSPLVNTTPSMDIMYGGNRLFYMHAEVGASLSRHKPKVALTPSHPDAQPVQSFPWRKVIREAGERRTGNEDCDGGVEIVLGMENGLSENVVSQCDYCLYIPQYGSIGSLSMISAMAIALHSAASAHVDQYMRDDDRVSPCSSRGHMPLSNGSLKVTKGNNLPHETNLLSLSNVEIAEILRARRMSYPMQLSVMVYNEFGDRNIGAIMRNANVFNCEQMIVLHRRKFNRRGALGTQHLIKTLFCSGVDDAQCQKSLEGYTIWLLYQYYPYLKIYEDPNGDEDATFIRPESTLLQEWLQGSYGMNPDHPMMNFHASHMIGTDVYLDDSDSVHAAVRHAANEGYRGIVLVVPEEGASFQRDIVKKARRIAYVVHPDRLARNVQRGLNGALSSAIALERLRTAIDGLQ | not soluble
14 | MGSDKIHHHHHHMIEYRIEEAVAKYREFYEFKPVRESAGIEDVKSAIEHTNLKPFATPDDIKKLCLEARENRFHGVCVNPCYVKLAREELEGTDVKVVTVVGFPLGANETRTKAHEAIFAVESGADEIDMVINVGMLKAKEWEYVYEDIRSVVESVKGKVVKVIIETCYLDTEEKIAACVISKLAGAHFVKTSTGFGTGGATAEDVHLMKWIVGDEMGVKASGGIRTFEDAVKMIMYGADRIGTSSGVKIVQGGEERYGG | soluble
15 | SESDSEMVPFPQLPMPIENNYRACTIPYRFPSDDPKKATPNEISWINVFANSIPSFKKRAESDITVPDAPARAEKFAERYAGILEDLKKDPESHGGPPDGILLCRLREQVLRELGFRDIFKKVKDEENAKAISLFPQVVSLSDAIEDDGKRLENLVRGIFAGNIFDLGSAQLAEVFSRDGMSFLASCQNLVPRPWVIDDLENFQAKWINKSWKKAVIFVDNSGADIILGILPFARELLRRGAQVVLAANELPSINDITCTELTEILSQLKDENGQLLGVDTSKLLIANSGNDLPVIDLSRVSQELAYLSSDADLVIVEGMGRGIETNLYAQFKCDSLKIGMVKHLEVAEFLGGRLYDCVFKFNEVQS | soluble
16 | MVSVDPLATERWRSIRRLTDRDSAYKVPWFVPGPENFEALQNTKILVIGAGGLGCELLKNLALSGFRTIEVIDMDTIDVSNLNRQFLFRESDVGKSKAEVAAAFVQQRVVGCQVTAHNCRIEDKGQEFYRKFSIIICGLDSIPARRWINGMLCDLVLEMADGKPDENTIIPMIDGGTEGFKGNARVIYPKFTACIDCTLDLYPPQVNFPLCTIAHTPRLPEHCIEYIKVVVWPEEKPFEGVSLDADDPIHVEWVLERASLRAEKYNIRGVDRRLTSGVLKRIIPAVASTNAVIAASCALEALKLATNIAKPIDNYLNFTQIHGAYTSVVSMMKDDNCLTCSGGRLPFEVSPSSTLESLIIRLSERFHLKHPTLATSTRKLYCISSFMPQFEQESKENLHTSMKDLVSDGEEILVSDEALSRALTLRIQLI | not soluble
17 | MGSDKIHHHHHHMTDIATYNFAYLDEQTKRMIRRAILKGIAIPGYQVPFASREMPMPYGWGTGGVQVTASIIGPDDVLKVIDQGADDTTNAVSIRAFFKKVANVAVTTNTASATIIQTRHRIPEHPLTAGQVLVYQVPIPEPLRFLEPRETETRKMHALEEYGLMHVKLYEDIAKHGRIATTYAYPVKVEGRYVMDPSPTPKFDNPKMHRSPALQLFGAGREKRIYAVPPFTDVVSLDFEDHPFEVQTFDQPCALCAAENVYLDEVILDDHGGHMFVCSDTDHCEKRREEGHRGHLAPETHLGSEKMEPAQ | not soluble
18 | MNDFTTEIVQTLVTKGDLNELFRSHLEKAINTLLRTELTAFLDYEKYDRTGFNSGNSRNGSYFRSIKTEYGELTLEIPRDRNGEFKQQTLPAYKRTNDTLETTIIHLFEKGVTMSEIADLIEKMYGHHYTPQTMSNMTKVLTEEVNAFKSRALNDKYVAIFMDATYIPLKRQTVSKEAIYIAIGIREDGTKEVLSYAIAPTESTYVWNELLQDINSRGVQEVLLFITDGLKGMKDTIHQIYPKAKYQHCCIHVSRNIAHKVRVKDRKEICDDFKAVYQANSKEEANTFLSGMIEKWKKNYPKVTQSLIENQDLLTFYDFPPSIRRTIYSTNLIESFNKQIKRYSRRKEQFQNEESLERFLVSIFDTYNQKFLNRSHKGFQQVTDTLVSMFTE | not soluble
